From the supplement of paper PMC12764529
± gives the half width of the 95% confidence interval.

Assays:
[1] = folding stability dG unfold from chymotrypsin proteolysis; higher = more stable
Procedure: (§1)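 Folding stability of de novo designed mini-proteins (<80 aa, no Cys; designed by TrROS, TrMRF, ProteinMPNN and the joint model) was measured by cDNA display proteolysis with trypsin and chymotrypsin. Each protease was used at 11 concentrations in a threefold dilution series plus a no-protease condition. K50 was inferred by Bayesian fitting of sequencing counts, and dG unfold was derived against a sequence-predicted unfolded-state K50 (Tsuboyama et al. method). Sequences shown include variable-length N-terminal GS-type padding (SAGGSAGG...) inside a display construct carrying a PA tag. Rows were kept only if the AF2 dimer inter-PAE was >15, to exclude likely homo-oligomers.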

[2] = folding stability dG unfold (combined trypsin and chymotrypsin); higher = more stable
Procedure: as §1

Sequence	folding stability dG unfold [1]	folding stability dG unfold [2]
SAGGSAGGMKTKTYTIPLSQVSSIDPSGTVSEEEVKALGLPPNFKATVVPLPGSEEAVEVTVPESAGGSAGG [r6_553_JUSTAS]	0.481 ± 0.46 kJ/mol	-1.6 ± 0.753 kJ/mol
SAGGKKTVEIPIWMPYDDAKNIAKEAVEEAAASNDNVTVTIEIWQWEPDPNGKPEWQPIGKAEIKVPPSAGG [r13_974_TrROS]	-0.0546 ± 0.268 kJ/mol	-1.8 ± 0.795 kJ/mol
SAGGGSMYDPETGTLRDENGNFFRTEEKKIPEVVIELPIELPDNTTLVIPVKFRTEEEAEKAVEELLSAGGS [r8_440_JUSTAS]	0.112 ± 0.962 kJ/mol	-0.8 ± 1.38 kJ/mol
SAGGAPDIPILTASYSPDGVLYSSTTTPINGTLHYFPEDNPVVLATDPATGLTVPVGTLEDVKRLIASAGGS [r8_232_TrMRF]	0.869 ± 0.586 kJ/mol	-1.55 ± 0.795 kJ/mol
SAGGSAGGSAGGVYKVEIEIGDAPRTLVVENAAPEEIRAFLEHPEVRRARVEPLSPEELGSAGGSAGGSAGG [r7_502_TrMRF]	0.903 ± 0.502 kJ/mol	-0.636 ± 0.46 kJ/mol
SAGGSAGGPKWRRYTIPLDKIKEIDPGGTVTLDDIQDLGLPPDHEIRVVPRPDGEPWVSIEVPYSAGGSAGG [r6_553_TrROS]	2.12 ± 0.586 kJ/mol	0.839 ± 0.46 kJ/mol
SAGGSAGGSAGGGMRLVEVPPGDPAAVEARLAELGPDARLLEVRRLPEEGRWVVLVSEESAGGSAGGSAGGS [r10_23_JUSTAS]	2.69 ± 0.837 kJ/mol	-1.08 ± 1.38 kJ/mol
SAGGMSVEVDWGETTRRLTFYDESGNPVADAEEPVLDPLTGLSTSRGVSLEELARRAGVPVELPERRSAGGS [r16_778_JUSTAS]	3.2 ± 0.105 kJ/mol	1.41 ± 0.243 kJ/mol
SAGGSAGGSAGIKIYAPGFPGMPVEIERDPDEPNVIKIKIKGPDNGEPQERTFPADDLEISAGGSAGGSAGG [r17_341_TrROS]	2.2 ± 0.31 kJ/mol	-0.708 ± 1.17 kJ/mol
SAGSIQVSESALAPGYSLYTITIPYQSIEDAKKLVEEIVSKRFSVPAEIIETKVDPNTGVVTFTVKVPPSAG [r5_810_JUSTAS]	22.2 ± 0.368 kJ/mol	22.3 ± 0.628 kJ/mol
SMVYVPEKNVIIEESEKLFYDPNKPRDLRVKTTPVIEVSPSGEKKTLKTEITFYNPEGNPIFTEESEIEISA [r9_383_JUSTAS]	-1.67 ± 0.92 kJ/mol	< -4.18 kJ/mol
SAGGSAGGSAGGMKITLKVKKPDGTTTTITVDIDESKIEEIKEEIAPKGYEVEEAEIELESAGGSAGGSAGG [r7_159_JUSTAS]	2.67 ± 0.502 kJ/mol	0.0311 ± 1.51 kJ/mol
SAGGSAPVIVKEASLEEIKELKKKGVKKIILVEKNPEIAEKIKKEFEKEDDIPIETVSEEEAKKLKSAGGSA [r15_243_TrMRF]	-1.23 ± 0.544 kJ/mol	-3 ± 1.17 kJ/mol
SAGMPVLVSAPIPLARGPDGVARIDPALVRALAEAAGFTGRVESVEVRPLPDSYLVAVRLPDSVLLGESAGG [r19_398_TrMRF]	2.81 ± 0.322 kJ/mol	-1.3 ± 0.46 kJ/mol
SAGGSAGGSAGGAIEEARDLAKEGGPWEATIPVYDPNGGPKTIKIRVEVERDPENGKFKSAGGSAGGSAGGS [r10_346_TrROS]	1.07 ± 0.502 kJ/mol	-0.328 ± 0.795 kJ/mol
SAGMEEILEAAREAIEAGLTVRIEVTFKDGKKEEIEIEVESLEELLEALEKLDEIESVKIEVLAPGEEPSAG [r5_956_TrROS_Hall]	12.3 ± 0.628 kJ/mol	15.1 ± 3.97 kJ/mol
SAGSSRIIFYPENNTYLIETPEGSFTLPETVTTTTPAPTGENPDRTVPRPTTTYVATELSLEEAEKLLSSAG [r5_234_JUSTAS]	1.54 ± 0.213 kJ/mol	-0.625 ± 0.318 kJ/mol
SAGGSAGPMVKTTEFSAVYTGPGGVSRGPVAVTVEIPPGDPSNPVLTVTLPDGTPRTLAAGEVEAASAGGSA [r15_954_JUSTAS]	-2.81 ± 1.51 kJ/mol	-3.17 ± 1.13 kJ/mol
SAGGSAGGSAGMTITVYPSDGTVLTRDMSLSEIPELLKKHPELVLESIEEGEGLAKFKVKSAGGSAGGSAGG [r17_22_JUSTAS]	-4.37 ± 3.39 kJ/mol	< -4.18 kJ/mol
SAGMDEYIRELIEKLPSENPSTSPITYRDKNIEAVTYYPSTNTTTFHFPGGEVISASPSTSIEEILKELSAG [r14_59_JUSTAS]	0.828 ± 0.92 kJ/mol	-0.806 ± 0.795 kJ/mol
SAGGSAGGSAGSSSFIRKGKDGSRITATPSPSYITISTFPLKGGGIVPSTKTTTLPPSLLSAGGSAGGSAGG [r11_88_JUSTAS]	-3.83 ± 1.88 kJ/mol	< -4.18 kJ/mol
SAGGSITTEKSLPETNLTLKTTYEGDTETVEIYHHPESDTPVLLAKETVTFSPDGSVSRKSTVVKIESAGGS [r8_69_JUSTAS]	-0.358 ± 0.711 kJ/mol	-2.02 ± 1.13 kJ/mol
SAGGSAIKPGDPYVRIKFRMGNEPMEFTIPAEKIKKITVDDPDDQVTIRFPGNGRKFPMKLEEVEISAGGSA [r15_495_TrROS]	-1.32 ± 1.38 kJ/mol	-1.72 ± 1.05 kJ/mol
SAGGSAGGSAKKELKIGNVEHNPGDGRYWANIQIKDGKPIVPVEFDDPQDPERFVKKAIKQLSAGGSAGGSA [r18_479_TrROS]	-2.95 ± 1.72 kJ/mol	< -4.18 kJ/mol
SAGGSAGGSAGGPVIPKDVKVKVIFSNGEVAELEVDSVDDLQKKLNVPIPPNVNLVVSRGSAGGSAGGSAGG [r7_223_TrMRF]	-3.18 ± 1.55 kJ/mol	
SAGGSAGGSAGGPPPGDKIEIIVIKFEPRYDPDGEPKNPRIDSIEVITIPADDPDDLLEASAGGSAGGSAGG [r7_439_TrROS]	3.37 ± 0.331 kJ/mol	1.46 ± 1.42 kJ/mol

Sequence	folding stability dG unfold [1]	folding stability dG unfold [2]
SAPEIVVERFEDGSRRLGFTIPGYEVLEEVDVPANETEKTAVFTLPDRVLVFTFREEGIEPRPVPLDELSAG [r14_403_TrMRF]	-0.84 ± 1.26 kJ/mol	-2.5 ± 1.05 kJ/mol
SAGGSAVGYYVETEIEKVEEKTYTFKPDGSPLKYFKNVKKNIKVKKVYVVKPTPDNSVIVDPNIPLSAGGSA [r15_162_JUSTAS]	-2.59 ± 1.92 kJ/mol	< -4.18 kJ/mol
SAGGSAGGSGGMMVTITLPPGVPPSVVRAALEPLGVRVEVRPVPPVVPFRYPEPGELVFSPLGSAGGSAGGS [r12_80_JUSTAS]	1.56 ± 0.711 kJ/mol	< -4.18 kJ/mol
AARSVDVEVEELSTVTPAGGRTRLLRVRAYVPETGRTAEVPYRAVLLPDGSERPFGTAEELADRIARLLVSS [r1_77_TrMRF]	0.76 ± 0.711 kJ/mol	-0.156 ± 0.502 kJ/mol
SLEELAKAIAEKLGLPVEDVEVRVEKEVDEETGEERLRVTVLIKVDGKTYLIEIDLETGEIVEIKPLEDLSA [r9_1219_TrROS_Hall]	19.6 ± 0.962 kJ/mol	
SAGDIEIEVEELGEGYKKITIRIKVDSIEEAIKEVEEIVRDFFSEEAEIVEIKIDPEKGIVEAVVIVPESAG [r5_810_TrMRF]	14.2 ± 1.67 kJ/mol	
SAGGSAGGSAGGKTITLDELRENFPPGYQIRDNNGKQHRINANEPIEEGDPIEIVSKDDISAGGSAGGSAGG [r7_507_TrROS]	-0.864 ± 0.711 kJ/mol	
SAGGSAGGSAGGSMVITIEYTGSVEDLIKKLKEEGLDVKVLEVKFDPKTGKYTVTLEVKSAGGSAGGSAGGS [r4_315_JUSTAS]	17.7 ± 0.837 kJ/mol	
SAGGSAGGSISPEAAKEGPLTIEVSWMHPDGRTEEEEFPIGQPIKIPPDFKDRPPQITSIRPRSAGGSAGGS [r12_161_TrROS]		< -4.18 kJ/mol
SAGGSAGGSMVEEFETTEFSPPEPLVRVERLKKEIFTFPENSLSYKVTPVEERLVTPEEVAAESAGGSAGGS [r12_374_JUSTAS]		< -4.18 kJ/mol
SAGGSAGGSSMPVLPVRTEEFPHPDSVYTVTTTRYPPTGATVTVLSTRFPGPPEVVTSTTVTPSAGGSAGGS [r12_14_JUSTAS]		< -4.18 kJ/mol
SAGGSAMVIEVEEEALSEEEAEEIKEEKLKEAKEKLPGEEPVELDIKVTVTVKEPEEKPYKKNILKSAGGSA [r15_663_JUSTAS]		< -4.18 kJ/mol
SAGGSAGGSMELPSGVVVKSTSEDPAAKTVTVSFPSGAVYTLPLPDPNVSQPVTVKTPPGAGVSAGGSAGGS [r12_149_JUSTAS]		< -4.18 kJ/mol
SAGGSAGGSMKVRLLIGEEEVEKAIAEGIPKEVMKPEKEKIPSSTDPRFAGNPEPVLLYYIGESAGGSAGGS [r12_78_JUSTAS]		< -4.18 kJ/mol
SAGGSAGGSAGKNVPFRWRIRDPKNGNEKTIDVPMDSPEDMNRAADELQKKFPGYKVEPYSAGGSAGGSAGG [r11_233_TrROS]		< -4.18 kJ/mol
SAGGMDEEELRELLAEDDATVLTEDPDGLLVAFTLPDGTARVFPVPSRERLDRLIAEVPDATVTTLPASAGG [r13_600_JUSTAS]		< -4.18 kJ/mol
SAGGSAGGSAGGGSVTESPSYVVTRSADPAGPALYTVTDLSTGVPSSSTVAPDAPAVVPPSAGGSAGGSAGG [r7_177_JUSTAS]		< -4.18 kJ/mol
SAGGSAGGSAGGTDKVKEKLAPGRDITVLKIDPTDSVVNVTVKSPDSDVDTVVEVDPELISAGGSAGGSAGG [r7_303_JUSTAS]		< -4.18 kJ/mol
SAGPKIEIEPLDWERDPGNGHMVIPVEISVKVPREENGRPPEQAEEKKESLVREFAREWAPKHGMPIHVSAG [r5_333_TrROS]		< -4.18 kJ/mol
SFKLPEGEEREFRLPDVPIEIEVDDGPGMIKINIYPPENPGKPVFEHEVPPGEIKPIEIPPELRDAMKKQSA [r9_1051_TrROS]		< -4.18 kJ/mol
SASSTLTFTLPRYTVNKVYDKEGKPVPVEITPVPTLEVTATTLPDGTVVVTIGDETRTYPPGVSPEELLSAG [r14_909_JUSTAS]		< -4.18 kJ/mol
SAGGSAGGSAGGPDIKEAKPGLYPDKPVIYFKLPDREVVLFPGPKERFVKFGDKVLKIPSAGGSAGGSAGGS [r10_559_TrMRF]		< -4.18 kJ/mol
SAGGSAGGSAGGMVTNEVIEVDPANPEEVIAEIKAKGKAEAKKIEKLEGDKMKVYVKTSLSAGGSAGGSAGG [r7_589_JUSTAS]		< -4.18 kJ/mol
SAGGSAGGSASAEELAEALRREHPDAEVTVTVTPVPREVGPRPVLEREVTVESVRSPEEPASAGGSAGGSAG [r3_118_JUSTAS]		< -4.18 kJ/mol
SAGGSAGGSAGGPKIQIPVDSPEDAVDEARDWMEQQFGIDPEDMPINVHVNEDDGWLYIRSAGGSAGGSAGG [r7_387_TrROS]		< -4.18 kJ/mol
